The record followed here is the supplement of paper PMC5998384.

In series [1] the test system is HeLa Kyoto. Put plainly: solubility in G1/S (NP-40 vs SDS abundance) (log2 ratio); higher = more soluble. As to conditions: cell cycle stage: G1/S.
Series [2] deals with HeLa Kyoto. Kind of series: solubility change mitosis vs G1/S (difference of NP-40 vs SDS log2 ratios) (log2 ratio difference); higher = more soluble in mitosis.
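Throughout, for solubility change mitosis vs G1/S (difference of NP-40 vs SDS log2 ratios): synchronized HeLa Kyoto cells (double thymidine block for G1/S, nocodazole release for mitosis), protein amounts in NP-40 versus SDS lysates quantified by mass spectrometry, three biological replicates.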
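Throughout, for solubility in G1/S (NP-40 vs SDS abundance): HeLa Kyoto cells arrested at G1/S by double thymidine block, proteins quantified by TMT10plex mass spectrometry in mild NP-40 versus SDS extracts, three biological replicates.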

In the case of “MEEEQDLPEQPVKKAKMQESGEQTISQVSNPDVSDQKPETSSLASNLPMSEEIMTCTDYIPRSSNDYTSQMYSAKPYAHILSVPVSETAYPGQTQYQTLQQTQPYAVYPQATQTYGLPPFGALWPGMKPESGLIQTPSPSQHSVLTCTTGLTTSQPSPAHYSYPIQASSTNASLISTSSTIANIPAAAVASISNQDYPTYTILGQNQYQACYPSSSFGVTGQTNSDAESTTLAATTYQSEKPSVMAPAPAAQRLSSGDPSTSPSLSQTTPSKDTDDQSRKNMTSKNRGKRKADATSSQDSELERVFLWDLDETIIIFHSLLTGSYAQKYGKDPTVVIGSGLTMEEMIFEVADTHLFFNDLEECDQVHVEDVASDDNGQDLSNYSFSTDGFSGSGGSGSHGSSVGVQGGVDWMRKLAFRYRKVREIYDKHKSNVGGLLSPQRKEALQRLRAEIEVLTDSWLGTALKSLLLIQSRKNCVNVLITTTQLVPALAKVLLYGLGEIFPIENIYSATKIGKESCFERIVSRFGKKVTYVVIGDGRDEEIAAKQHNMPFWRITNHGDLVSLHQALELDFL [EYA3]”, the “solubility in G1/S (log2)” value in the series with HeLa Kyoto [1] is -0.0392. For the same sequence, the “solubility change mitosis (log2)” value in the series on HeLa Kyoto [2] is -0.0147.
Consider “MEEFDLVKTLHKTSSSVGSDENSLHSLGLNLNTDRSSPHLSTNGVSSFSGKTRPSVIQGTVEVLTSLMQELQNSGKTDSELWKNCETRWLQLFNLVEKQCQEQIVAQQEQFHNQIQHIQEEIKNLVKLQTSSASLASCEGNSSNKQVSSESQMGFFSLSSERNESVIHYPESTEPEIQQEMSTSQPDCNVDSCSVSSGYGTFCISELNLYKSKDPKEFMEHIDVPKGQYVAPAVPAESLVDGVKNENFYIQTPEECHVSLKEDVSISPGEFEHNFLGENKVSEVYSGKTNSNAITSWAQKLKQNQPKRAHVEDGGSRSKQGNEQSKKTPIEKSDFAAATHPRAFYLSKPDETPNAWMSDSGTGLTYWKLEEKDMHHSLPETLEKTFISLSSTDVSPNQSNTSNEMKLPSLKDIYYKKQRENKQLPERNLTSASNPNHPPEVLTLDPTLHMKPKQQISGIQPHGLPNALDDRISFSPDSVLEPSMSSPSDIDSFSQASNVTSQLPGFPKYPSHTKASPVDSWKNQTFQNESRTSSTFPSVYTITSNDISVNTVDEENTVMVASASVSQSQLPGTANSVPECISLTSLEDPVILSKIRQNLKEKHARHIADLRAYYESEINSLKQKLEAKEISGVEDWKITNQILVDRCGQLDSALHEATSRVRTLENKNNLLEIEVNDLRERFSAASSASKILQERIEEMRTSSKEKDNTIIRLKSRLQDLEEAFENAYKLSDDKEAQLKQENKMFQDLLGEYESLGKEHRRVKDALNTTENKLLDAYTQISDLKRMISKLEAQVKQVEHENMLSLRHNSRIHVRPSRANTLATSDVSRRKWLIPGAEYSIFTGQPLDTQDSNVDNQLEETCSLGHRSPLEKDSSPGSSSTSLLIKKQRETSDTPIMRALKELDEGKIFKNWGTQTEKEDTSNINPRQTETSVNASRSPEKCAQQRQKRLNSASQRSSSLPPSNRKSSTPTKREIMLTPVTVAYSPKRSPKENLSPGFSHLLSKNESSPIRFDILLDDLDTVPVSTLQRTNPRKQLQFLPLDDSEEKTYSEKATDNHVNHSSCPEPVPNGVKKVSVRTAWEKNKSVSYEQCKPVSVTPQGNDFEYTAKIRTLAETERFFDELTKEKDQIEAALSRMPSPGGRITLQTRLNQEALEDRLERINRELGSVRMTLKKFHVLRTSANL [MPHOSPH9]”, for which the “solubility in G1/S (log2)” value in the series on HeLa Kyoto [1] is -0.0212. The “solubility change mitosis (log2)” value in the series on HeLa Kyoto [2] was determined as 0.149.
For “MEEKPSGPIPDMLATAEPSSSETDKEVLSPAVPAAAPSSSMSEEPGPEQAATPPVWERGGAGGMQQGSSPAPDSCQPGPGPSPGLTSIVSGTSEDLRPPRRRPPPGKQIPCSSPGCCLSFPSVRDLAQHLRTHCPPTQSLEGKLFRCSALSCTETFPSMQELVAHSKLHYKPNRYFKCENCLLRFRTHRSLFKHLHVCAEHAQSPAPPPPPALDREPPAPERPPEVDPASAPGLPFPLLEPFTTPAPAPTGPFLPYLNPAPFGLSPPRLRPFLAAAPGPPASSAAVWKKSQGAGSSPRRPQGGSDAPSGACR [ZNF414]”, the “solubility in G1/S (log2)” value in the series with HeLa Kyoto [1] is -0.217. For the same sequence, the “solubility change mitosis (log2)” value in the series on HeLa Kyoto [2] was -0.445.
“MEEKYGGDVLAGPGGGGGLGPVDVPSARLTKYIVLLCFTKFLKAVGLFESYDLLKAVHIVQFIFILKLGTAFFMVLFQKPFSSGKTITKHQWIKIFKHAVAGCIISLLWFFGLTLCGPLRTLLLFEHSDIVVISLLSVLFTSSGGGPAKTRGAAFFIIAVICLLLFDNDDLMAKMAEHPEGHHDSALTHMLYTAIAFLGVADHKGGVLLLVLALCCKVGFHTASRKLSVDVGGAKRLQALSHLVSVLLLCPWVIVLSVTTESKVESWFSLIMPFATVIFFVMILDFYVDSICSVKMEVSKCARYGSFPIFISALLFGNFWTHPITDQLRAMNKAAHQESTEHVLSGGVVVSAIFFILSANILSSPSKRGQKGTLIGYSPEGTPLYNFMGDAFQHSSQSIPRFIKESLKQILEESDSRQIFYFLCLNLLFTFVELFYGVLTNSLGLISDGFHMLFDCSALVMGLFAALMSRWKATRIFSYGYGRIEILSGFINGLFLIVIAFFVFMESVARLIDPPELDTHMLTPVSVGGLIVNLIGICAFSHAHSHAHGASQGSCHSSDHSHSHHMHGHSDHGHGHSHGSAGGGMNANMRGVFLHVLADTLGSIGVIVSTVLIEQFGWFIADPLCSLFIAILIFLSVVPLIKDACQVLLLRLPPEYEKELHIALEKIQKIEGLISYRDPHFWRHSASIVAGTIHIQVTSDVLEQRIVQQVTGILKDAGVNNLTIQVEKEAYFQHMSGLSTGFHDVLAMTKQMESMKYCKDGTYIM [SLC30A5]”: the “solubility in G1/S (log2)” value in the series with HeLa Kyoto [1] was -0.143. The “solubility change mitosis (log2)” value in the series on HeLa Kyoto [2] is -0.241.
For the sequence “MEELSSVGEQVFAAECILSKRLRKGKLEYLVKWRGWSSKHNSWEPEENILDPRLLLAFQKKEHEKEVQNRKRGKRPRGRPRKLTAMSSCSRRSKLKEPDAPSKSKSSSSSSSSTSSSSSSDEEDDSDLDAKRGPRGRETHPVPQKKAQILVAKPELKDPIRKKRGRKPLPPEQKATRRPVSLAKVLKTARKDLGAPASKLPPPLSAPVAGLAALKAHAKEACGGPSAMATPENLASLMKGMASSPGRGGISWQSSIVHYMNRMTQSQAQAASRLALKAQATNKCGLGLDLKVRTQKGELGMSPPGSKIPKAPSGGAVEQKVGNTGGPPHTHGASRVPAGCPGPQPAPTQELSLQVLDLQSVKNGMPGVGLLARHATATKGVPATNPAPGKGTGSGLIGASGATMPTDTSKSEKLASRAVAPPTPASKRDCVKGSATPSGQESRTAPGEARKAATLPEMSAGEESSSSDSDPDSASPPSTGQNPSVSVQTSQDWKPTRSLIEHVFVTDVTANLITVTVKESPTSVGFFNLRHY [CBX2]”, the “solubility in G1/S (log2)” value with HeLa Kyoto [1] was -0.63. Moreover, the “solubility change mitosis (log2)” value in the series with HeLa Kyoto [2] was found to be 0.268.
As for “MEEPEEPADSGQSLVPVYIYSPEYVSMCDSLAKIPKRASMVHSLIEAYALHKQMRIVKPKVASMEEMATFHTDAYLQHLQKVSQEGDDDHPDSIEYGLGYDCPATEGIFDYAAAIGGATITAAQCLIDGMCKVAINWSGGWHHAKKDEASGFCYLNDAVLGILRLRRKFERILYVDLDLHHGDGVEDAFSFTSKVMTVSLHKFSPGFFPGTGDVSDVGLGKGRYYSVNVPIQDGIQDEKYYQICESVLKEVYQAFNPKAVVLQLGADTIAGDPMCSFNMTPVGIGKCLKYILQWQLATLILGGGGYNLANTARCWTYLTGVILGKTLSSEIPDHEFFTAYGPDYVLEITPSCRPDRNEPHRIQQILNYIKGNLKHVV [HDAC8]”, in the series with HeLa Kyoto [1], the “solubility in G1/S (log2)” value is 0.168. Besides, in the series on HeLa Kyoto [2], the “solubility change mitosis (log2)” value was -0.213.
With “MEFSIKQSPLSVQSVVKCIKMKQAPEILGSANGKTPSCEVNRECSVFLSKAQLSSSLQEGVMQKFNGHDALPFIPADKLKDLTSRVFNGEPGAHDAKLRFESQEMKGIGTPPNTTPIKNGSPEIKLKITKTYMNGKPLFESSICGDSAADVSQSEENGQKPENKARRNRKRSIKYDSLLEQGLVEAALVSKISSPSDKKIPAKKESCPNTGRDKDHLLKYNVGDLVWSKVSGYPWWPCMVSADPLLHSYTKLKGQKKSARQYHVQFFGDAPERAWIFEKSLVAFEGEGQFEKLCQESAKQAPTKAEKIKLLKPISGKLRAQWEMGIVQAEEAASMSVEERKAKFTFLYVGDQLHLNPQVAKEAGIAAESLGEMAESSGVSEEAAENPKSVREECIPMKRRRRAKLCSSAETLESHPDIGKSTPQKTAEADPRRGVGSPPGRKKTTVSMPRSRKGDAASQFLVFCQKHRDEVVAEHPDASGEEIEELLRSQWSLLSEKQRARYNTKFALVAPVQAEEDSGNVNGKKRNHTKRIQDPTEDAEAEDTPRKRLRTDKHSLRKRDTITDKTARTSSYKAMEAASSLKSQAATKNLSDACKPLKKRNRASTAASSALGFSKSSSPSASLTENEVSDSPGDEPSESPYESADETQTEVSVSSKKSERGVTAKKEYVCQLCEKPGSLLLCEGPCCGAFHLACLGLSRRPEGRFTCSECASGIHSCFVCKESKTDVKRCVVTQCGKFYHEACVKKYPLTVFESRGFRCPLHSCVSCHASNPSNPRPSKGKMMRCVRCPVAYHSGDACLAAGCSVIASNSIICTAHFTARKGKRHHAHVNVSWCFVCSKGGSLLCCESCPAAFHPDCLNIEMPDGSWFCNDCRAGKKLHFQDIIWVKLGNYRWWPAEVCHPKNVPPNIQKMKHEIGEFPVFFFGSKDYYWTHQARVFPYMEGDRGSRYQGVRGIGRVFKNALQEAEARFREIKLQREARETQESERKPPPYKHIKVNKPYGKVQIYTADISEIPKCNCKPTDENPCGFDSECLNRMLMFECHPQVCPAGEFCQNQCFTKRQYPETKIIKTDGKGWGLVAKRDIRKGEFVNEYVGELIDEEECMARIKHAHENDITHFYMLTIDKDRIIDAGPKGNYSRFMNHSCQPNCETLKWTVNGDTRVGLFAVCDIPAGTELTFNYNLDCLGNEKTVCRCGASNCSGFLGDRPKTSTTLSSEEKGKKTKKKTRRRRAKGEGKRQSEDECFRCGDGGQLVLCDRKFCTKAYHLSCLGLGKRPFGKWECPWHHCDVCGKPSTSFCHLCPNSFCKEHQDGTAFSCTPDGRSYCCEHDLGAASVRSTKTEKPPPEPGKPKGKRRRRRGWRRVTEGK [WHSC1]”, the “solubility in G1/S (log2)” value with HeLa Kyoto [1] was -1.29. The “solubility change mitosis (log2)” value in the series with HeLa Kyoto [2] amounted to 0.535.
Regarding “MEGLGRSCLWLRRELSPPRPRLLLLDCRSRELYESARIGGALSVALPALLLRRLRRGSLSVRALLPGPPLQPPPPAPVLLYDQGGGRRRRGEAEAEAEEWEAESVLGTLLQKLREEGYLAYYLQGGFSRFQAECPHLCETSLAGRAGSSMAPVPGPVPVVGLGSLCLGSDCSDAESEADRDSMSCGLDSEGATPPPVGLRASFPVQILPNLYLGSARDSANLESLAKLGIRYILNVTPNLPNFFEKNGDFHYKQIPISDHWSQNLSRFFPEAIEFIDEALSQNCGVLVHCLAGVSRSVTVTVAYLMQKLHLSLNDAYDLVKRKKSNISPNFNFMGQLLDFERSLRLEERHSQEQGSGGQASAASNPPSFFTTPTSDGAFELAPT [DUSP9]”, in the series on HeLa Kyoto [1], the “solubility in G1/S (log2)” value worked out at 0.279. In addition, the “solubility change mitosis (log2)” value in the series on HeLa Kyoto [2] was -0.104.
